Laboratory results taken from patent US20250197525A1 (MINOTAUR THERAPEUTICS, published 2025).

B1: B15 Variant 1 (chimeric BLV1H12-IL-15 fusion antibody) (antibody, human IgG1, lambda, L234A L235A)
heavy: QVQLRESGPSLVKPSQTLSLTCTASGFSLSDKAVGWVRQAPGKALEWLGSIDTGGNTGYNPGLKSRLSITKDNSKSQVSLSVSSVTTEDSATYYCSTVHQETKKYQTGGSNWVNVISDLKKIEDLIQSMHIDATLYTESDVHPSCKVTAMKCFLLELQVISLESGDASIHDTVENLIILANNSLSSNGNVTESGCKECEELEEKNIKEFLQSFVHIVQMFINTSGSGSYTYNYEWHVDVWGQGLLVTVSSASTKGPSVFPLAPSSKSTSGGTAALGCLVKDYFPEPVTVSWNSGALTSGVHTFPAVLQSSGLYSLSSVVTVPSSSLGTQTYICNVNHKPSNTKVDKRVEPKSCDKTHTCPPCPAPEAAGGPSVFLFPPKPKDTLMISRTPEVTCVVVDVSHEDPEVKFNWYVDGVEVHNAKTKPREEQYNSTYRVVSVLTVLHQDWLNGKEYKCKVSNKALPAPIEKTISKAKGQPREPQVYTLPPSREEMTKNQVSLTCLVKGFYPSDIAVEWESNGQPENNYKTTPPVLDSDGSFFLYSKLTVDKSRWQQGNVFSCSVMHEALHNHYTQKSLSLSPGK
light: QAVLNQPSSVSGSLGQKVTISCSGSSSNIGNNYVSWYQQLPGTAPKLLIYGDTKRPSGIPDRFSGSKSGTSATLGITGLQTGDEADYYCASAEDSSSNAVFGSGTTLTVLGQPKAAPSVTLFPPSSEELQANKATLVCLISDFYPGAVTVAWKADSSPVKAGVETTTPSKQSNNKYAASSYLSLTPEQWKSHRSYSCQVTHEGSTVEKTVAPTECS
B2: B15 Variant 3 (chimeric BLV1H12-IL-15 fusion antibody) (antibody, human IgG1, lambda, L234A L235A)
heavy: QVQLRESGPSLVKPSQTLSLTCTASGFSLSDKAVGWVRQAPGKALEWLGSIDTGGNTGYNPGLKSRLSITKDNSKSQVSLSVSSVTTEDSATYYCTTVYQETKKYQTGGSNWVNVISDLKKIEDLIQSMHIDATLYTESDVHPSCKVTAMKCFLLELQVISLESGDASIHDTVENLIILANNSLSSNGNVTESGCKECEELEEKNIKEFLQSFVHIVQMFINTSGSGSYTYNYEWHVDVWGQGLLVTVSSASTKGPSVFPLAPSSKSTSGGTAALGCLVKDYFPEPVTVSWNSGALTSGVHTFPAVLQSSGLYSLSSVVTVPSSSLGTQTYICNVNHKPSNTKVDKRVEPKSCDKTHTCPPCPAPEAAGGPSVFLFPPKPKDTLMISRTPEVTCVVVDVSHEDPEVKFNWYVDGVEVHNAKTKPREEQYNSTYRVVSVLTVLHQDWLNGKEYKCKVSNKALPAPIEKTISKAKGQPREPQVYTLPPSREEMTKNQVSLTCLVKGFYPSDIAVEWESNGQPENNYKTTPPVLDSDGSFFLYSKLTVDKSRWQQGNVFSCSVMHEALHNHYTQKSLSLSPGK
light: B1 light

Target: T1, IL2/15Rβ and γc receptor subunits (UniProt P31785 23-369, limits assumed)
T1 sequence 1: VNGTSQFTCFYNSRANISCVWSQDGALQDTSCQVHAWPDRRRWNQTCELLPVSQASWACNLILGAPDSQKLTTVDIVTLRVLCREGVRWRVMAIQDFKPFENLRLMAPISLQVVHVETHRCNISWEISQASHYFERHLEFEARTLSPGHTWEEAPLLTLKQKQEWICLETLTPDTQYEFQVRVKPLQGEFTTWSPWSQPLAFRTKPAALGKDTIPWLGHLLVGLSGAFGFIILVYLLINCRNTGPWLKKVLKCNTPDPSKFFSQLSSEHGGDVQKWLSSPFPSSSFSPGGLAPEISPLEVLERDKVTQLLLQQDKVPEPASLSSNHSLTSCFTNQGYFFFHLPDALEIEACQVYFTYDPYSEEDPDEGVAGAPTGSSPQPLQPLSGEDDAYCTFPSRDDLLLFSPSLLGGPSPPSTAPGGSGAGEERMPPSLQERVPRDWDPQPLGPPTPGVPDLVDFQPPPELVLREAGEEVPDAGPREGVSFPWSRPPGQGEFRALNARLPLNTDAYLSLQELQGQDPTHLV
T1 sequence 2: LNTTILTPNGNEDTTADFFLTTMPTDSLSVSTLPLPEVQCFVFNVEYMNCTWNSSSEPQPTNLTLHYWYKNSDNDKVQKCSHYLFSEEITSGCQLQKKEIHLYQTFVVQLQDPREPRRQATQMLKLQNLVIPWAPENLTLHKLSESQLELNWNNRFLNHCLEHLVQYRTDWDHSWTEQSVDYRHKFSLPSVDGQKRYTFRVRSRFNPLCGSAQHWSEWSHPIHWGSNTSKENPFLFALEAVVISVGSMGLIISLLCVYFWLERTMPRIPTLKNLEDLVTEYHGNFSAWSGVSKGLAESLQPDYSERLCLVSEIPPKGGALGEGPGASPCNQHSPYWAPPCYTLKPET
Test: cell-based or functional assay

Row | Binder | EC50 (nM), STAT5 inducible SEAP reporter in HEK-Blue IL2 reporter cells [nM]
1 | B1 | 0.032
2 | B2 | 0.026
